From patent US8076087B2, “Galectin sequences and compositions and methods utilizing same for treating or diagnosing arthritis and other chronic inflammatory diseases” (Medical Research Fund of Tel Aviv Souraskv Medical Center, priority 2002, dated 2011) come the findings set out here.

The test system of assay [1] is collagen induced arthritis (CIA). The assay is described as follows: Histopathological examination of rear footpad joints of CIA mice. Type of assay: in vivo, DBA/1 mice. The note with it: compared with joints of arthritic mice treated with PBS or PBS+30% glycerol. The text has this: Histopathological examination: The rear footpad joints of 5 arthritic mice that received PBS or PBS+30% glycerol (group 1, negative control), 2 arthritic mice that received anti-mouse-TNFα mAb (group 2, positive control), 3 arthritic mice that received human galectin-8 protein (group 3, positive control), 3 normal healthy mice and 5 arthritic mice that received human galectin-8 variant 1 (group 4) were sent to an accredited pathological laboratory (Patho-Lab, Kiryat Weitzmann, Rehovot) for histopathological examination.
Quantification of the arthritic changes was made subjectively based on degree of articular destruction and following evaluation of the different parameters often observed in arthritic joints. The definition of the parameters quantitated were: • 1. Cellularity within the joint: Cells present couldn't be identified due to loss of cellular morphology (decal), therefore red blood cells and leukocytes were all graded together. • 2. Presence of fibrin in the joint: Fibrin was present in apparently more acute lesions, but the amount of fibrin was proportionally small. • 3. Cartilage loss: Cartilage surfaces were evaluated in the section, slight changes of irregularity of the surface were noted. • 4. […] Synovial cell loss: Identification of synovial cells was difficult due to poor cellular morphology, but in general synovial surfaces were evaluated for integrity. • 6. […]

Another assay concerns IL-1β. The assay is described as follows: IL-1β levels in media of LPS-supplemented human synovial tissue / cell cultures, sandwich enzyme immunoassay. It is filed as cell-based. The note with it: LPS 3 μg/ml, 50-2000 ng/ml, 48 hours. On the procedure:
(§1) Specimen Selection and Culture Conditions: Synovial tissues were obtained from patients undergoing total knee or hip replacement for osteoarthritis (OA). Within 2 hours of removal, synovial tissues were cut into small pieces, of a few millimeters in diameter. Synovial fibroblasts were cultured in 2 ml RPMI 1640 supplemented with 2 mM L-glutamine, 100 U/ml penicillin and 100 μg/ml streptomycin sulphate (Biological Industries).
(§2) Inflammatory cells and PBLs derived from joints of rheumatoid arthritic (RA) patients were cultured individually [RPMI-1640 (Sigma, Israel)]. The murine fibroblast line, NIH 3T3, was used as a control. The recombinant galectin-8 peptide (r-galectin-8) was added to the culture medium of the synovial fibroblasts at a concentration of 0.125 μM, 0.25 μM, 0.5 μM and 1 μM) together with lipopolysaccharide (LPS, 3 μg/ml). The recombinant galectin-8 peptide variants (r-galectin-8 variant 1 and r-galectin-8 variant 2) were added to all the culture mediums in the following concentrations: 50 ng/ml, 125 ng/ml, 250 ng/ml, 500 ng/ml, 750 ng/ml, 1 μg/ml and 2 μg/ml together with lipopolysaccharide (LPS, 3 μg/ml). Following 48 hours of incubation (37° C., 5% CO2), the measurement of IL-1β, TNF-α and IL-1ra production was performed in supernatants by quantitative sandwich enzyme immunoassay technique (R&D Systems, Inc., USA). Detection limits were 1 pg/ml to 14 pg/ml. IL-1ra production was tested with and without the addition of lipopolysaccharide (LPS, 3 μg/ml) to the culture media.

Assay [2] has as its system synovial fluid cells from RA patients. Put plainly: Apoptosis induction, annexin V/PI flow cytometry, synovial fluid cells. It is filed as cell-based, human. The note with it: inflammatory cells from joints of arthritic patients, lowest concentration 50 ng/ml. On the procedure:
(§3) The assay was performed by Phosphatidyl Serine Detection Kit (IOP-116F FITC-conjugated, IQ Products, The Netherlands) using the manufacturer instructions. Human fibroblast cells from OA patients, synovial fluid cells and PBLs from RA and other arthritic patients were incubated with increasing concentrations of galectin-8 variants 1 and 2 (50-2000 ng/ml). Specific binding of annexin V was performed by the incubation of cells for 20 minutes on ice in a binding calcium buffer containing a saturating concentration of annexin V-fluorescein isothiocyanate (FITC) and propdium iodide (PI). After incubation, the cells were pelleted, and analyzed in FACS analyzer (Beckton Dickinson, San Jose, Calif.). Annexin V^+/PI^+ cells were defined as necrotic, while annexin V^+/PI^− cells were defined as apoptotic. The percent of the apoptotic cells of the total cells was determined.
In general terms: Flow cytometry measures light scatter and fluorescence of single cells or particles in a stream.

The test system of assay [3] is TNFα. The assay is described as follows: TNFα levels in media of NIH 3T3 fibroblasts (negative control cells). It is filed as cell-based, murine. The note with it: LPS 3 μg/ml, 50-2000 ng/ml, 48 hours. How it is done: as §2
Assay [4] relates to PBLs of arthritic patients. The assay is described as follows: Apoptosis induction, annexin V/PI flow cytometry, PBLs. The note with it: lowest concentration 50 ng/ml. It is filed as cell-based, human. How it is done:
as §3

In assay [5] the test system is collagen induced arthritis (CIA). The assay is described as follows: Collagen-induced arthritis (CIA) in DBA/1 mice, footpad thickness. The note with it: 100 μg per injection. It is filed as in vivo. An excerpt: Animal treatment: 44 DBA/1 mice were induced with a joint inflammatory disease by two subcutaneous (s.c.) injections into the base of the tail of type II collagen three weeks apart. Joint inflammation, which appears several days after the last collagen injection, causes enhanced marked foot pad swelling, as well as swelling of other joints. The diameter of nonarthritic footpads is 1.5 to 1.7 mm. A footpad diameter of 1.9 to 2.0 mm was arbitrarily set as disease onset. […] Human galectin-8 protein and variants (100 μg per injection) as well as control injections were injected IP at disease onset and then every day for 11 days. The 44 mice were divided into 5 experimental groups as follows: Group 1 (negative control): systemic injection (starting at CIA onset) of PBS or PBS+30% glycerol (storing dilution solution of galectin proteins) (10 mice). Group 2 (positive control): systemic injection (starting at CIA onset) of anti-mouse TNFα mAb (cat. no. AMC-3012, Biosource Int. Inc. USA) adhering to the standard protocol (i.e., 100 μg antibody/mouse every day for 11 days) (6 mice). Group 3 (positive control): systemic injection of human galectin-8 protein according to the standard protocol (10 mice). Group 4: systemic injection of 100 μg per dose of human galectin-8 variant 1 according to the standard protocol (10 mice). Group 5: systemic injection of 100 μg per dose of human galectin-8 variant 2 (8 mice). The effect on footpad thickness was determined in a “blind” fashion, recording the electronic microcaliper measurements of the thickness of the joints, by picking the animals at random and recording their ears' signs following measurement. The mice were bled prior to disease induction, following disease onset and upon termination of the experiment (approximately day 11). The sera were stored and later analyzed for the presence of rheumatoid factor (RF) and cytokines. The mice were killed upon termination of the experiment and the joints removed from some of the animals for histopathological examination.

For assay [6], the system named is TNFα. The assay is described as follows: TNFα levels in media of LPS-supplemented human synovial tissue / cell cultures, sandwich enzyme immunoassay. It is filed as cell-based. The note with it: LPS 3 μg/ml, 50-2000 ng/ml, 48 hours. On the procedure:
as §1, §2

Where [7] appears, read: PBLs from RA patients, listed as galectin-8 var. 1.
[8] abbreviates: human fibroblasts from OA patients.
Setting [9] is: human fibroblasts from OA patients, listed as galectin-8 var. 1.
Where [10] appears, read: synovial fluid cells (SFCs), listed as galectin-8 var. 1.

B1: galectin-8 variant 1: recombinant galectin-8 variant 1 polypeptide, SEQ ID NO: 6, isoform found in synovial fluid cells of arthritic patients (protein)
chain: MMLSLNNLQNIIYNPDLQSTQASSLELTEISRENVPKSGTPQLPSNRGGDISKIAPRTVYTKSKEARQSHFDLHENTTYELCVKSLPFAARLNTPMGPGRTVVVKGEVNANAKSFNVDLLAGKSKDIALHLNPRLNIKAFVRNSFLQESWGEEERNITSFPFSPGMYFEMIIYCDVREFKVAVNGVHSLEYKHRFKELSSIDTLEINGDIHLLEVRSW
In the case of B1, the “recovery of joints (histopathology)” value in assay [1] is “recovered, most of them completely and some at least partly”. Further, the “IL-1β levels in media” value in the assay with IL-1β (PBLs from RA patients) was “significantly and dose-dependently inhibited”; in the assay on IL-1β (setting [7]), “decrease”; in the assay with IL-1β (setting [8]) it was “significantly and dose-dependently inhibited”; in the assay on IL-1β (setting [9]), “decrease”; in the assay on IL-1β (synovial fluid cells (SFCs)) it was “significantly and dose-dependently inhibited”; with IL-1β (setting [10]) it was “decrease”. Moreover, the maximal apoptotic effect entry in assay [2] and in assay [4] was “approximately 100%” throughout. In addition, the “TNFα levels in media” value with TNFα [3] is “No effect”; with TNFα [3] (listed as galectin-8 var. 1) it was “remain unaffected”; with TNFα [6] (PBLs from RA patients), “significantly and dose-dependently inhibited”; in the assay on TNFα [6] (setting [7]), “decrease”; in the assay on TNFα [6] (setting [8]) it was “significantly and dose-dependently inhibited”; with TNFα [6] (setting [9]), “decrease”. The “TNFα levels in media” value in the assay with TNFα [6] (synovial fluid cells (SFCs)) is “significantly and dose-dependently inhibited”; in the assay with TNFα [6] (setting [10]), “decrease”. Further, in assay [5] (IP / systemic, from disease onset every day for 11 days), the “CIA manifestations (footpad swelling)” value is “substantially reduced”. Also, the “alleviating the swelling in the footpad, compared with positive controls” value in assay [5] (every day for 11 days) is “at least as effective as anti-TNFα mAb and the human galectin-8 recombinant peptide”.
